A protein production outcome set (Wang et al. 2014)

test: label from the status in PepcDB records
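Further: failed if final PepcDB status was selected cloned or expressed and not failed if soluble or beyond.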

Question: With “MICYKCGQDAGWNDKCPVCGADLSLFKRAIRISNSYYNDGLQKAQVRNLSGAIISLRQSLKFYKYNIQARNLLGLIYYEMGEMVDALSEWVISANYQPDDNLAKKYIDQIHNNRNQLETINQTIKKYNQALTYCKQDSKDLAVIQLRKVLSLNPKLVKGHQLLALLYLEEGHLDKAKKALRDAGKIDTDNTTTLRYLKEVNRRLKEKGTERKKKNDDLISYQSGNETIIMPKRFRESSMWANILYIIIGLVVGVAVTCFLVVPGIKSQAKTDAKKQLLSANDTISTNGQTISGLNDQIDKLKKELEDEKKKNDGVSDQISTYEALLNAYVYYTTNDVIKAGEALENINTSYLSDSAKQTYDTLNGSIADSYKEALYSQAYSSYSSGDYQSAIPTFQKLVGMDEAYRDGSAAYYLAQSFRKSGDLASAKPYYQYVVDNYAGTEKARTSKNYLAQEQQ” as the sequence, how does the protein production read?
Answer: Its protein production is “failed”.

Question: With “MIDFNVDSARCTRCGQCVADCPSRIIVMATGEYPSIAPGKEFSCLRCEHCLAVCPEAAISILGFSPDGSTPLKGNLPETDQLETLIAGRRSVRRYCPENLSPELIDKLITVASCAPTGVNARKVRFTVLDDREKTAHFRDEVMERLVRLLEEEALPESKAYYARFVKVWQKHKIDLVFRDAPHLLIATAPKSLSTPRQDCVIALTTFELYAQACGIGTLWNGIATWAIEEMLPEMRQRLGIPDDHAFGYAMLFGKPAVRYARTVQHHPPEIYRVPLEHHHHHH” as the sequence, how does the protein production read?
Answer: The protein production was “not failed”.

Question: For “MIDIHCHILPEIDDGPSSLEESLVMAREAVKEGITKIIATPHHLHPSYNNKAAVVKEKVRKLNEAIQKENIPLEILPGQEVRISGDVMDGLVSGDILTLADQGKYLFVEFSSNHVSRYADKLFFQLLSQDIIPIIVHPERNHEFLKNPGLLYDLVNGGALTQITTSSLTGHLGKKIKKFTEQIIEADLTHFLASDAHNVTERTFRIREAFALVEKNYGSSKAYEFQENAELLVENQHVMGPPPQPIVKKKLLGIF”, which protein production is on record?
Answer: The protein production was “failed”.

Question: Which protein production does the source give for “MIDIKVDPRLKSQRFRQEREADWRRLERLIGKVEKGSIADLSDEDLLAAPVLYRSALSALSVARATSLDRALIAYLETLCARAYFFVYGSRETLWGQLKGFFAGDWPAAVRGLWRETLVSAALMALGVMIAAWLVGHDPDWFYAFVPRELAGGRDPAATTEALAATLGGKDASGLTVFATFLFTHNAQVALLAFALGFALCVPTAGLVLYNGAMLGAFLALFASRGLGIELGGWLLIHGVTELFAVILAGAAGLRIGWAAAFPGERRRLDALAEAGRHAATVMGGVVVMLFLAGLLEGFGRQLITDTAARYGVAAATALMWGLYFYGPRRHG” here?
Answer: The protein production was “failed”.

Question: Which protein production does the source give for “MIDLDFRKLTIEECLKLSEEEREKLPQLSLETIKRLDPHVKAFISVRENVSVEKKGKFWGIPVAIKDNILTLGMRTTCASRILENYESVFDATVVKKMKEAGFVVVGKANLDEFAMGSSTERSAFFPTRNPWDLERVPGGSSGGSAAAVSAGMVVAALGSDTGGSVRQPASLCGVVGYKPTYGLVSRYGLVAFASSLDQIGPITKTVRDAAILMEIISGRDENDATTVNRKVDFLSEIEEGVSGMKFAVPEEIYEHDIEEGVSERFEEALKLLERLGAKVERVKIPHIKYSVATYYVIAPAEASSNLARFDGVKYGLRIKEKGLREMYMKTRNVGFGEEVRRRIMIGTFTLSAAYYEAYFNKAMKVRRKISDELNEVLSQYDAILTPTSPVTAFKIGEIKDPLTYYLMDIFTIPANLAGLPAISVPFGFSNNLPVGVQVIGRRFADGKVFRIARAIEKNSPYNENGMFPLPEVKA” here?
Answer: Its protein production is “not failed”.

Question: Which protein production does the source give for “MIDPREPIVTPVPVEELRPTQITVGMREVALKRQMIREQDAKKKTGAFLGKHMVPVVLGPKNRNYVTDHHHLARALLEEGVKDVLVTVISDLSALDKDTFLFVLDNRGWMHPFDESGRRRDYSAIPKTIGELIDDPYRSMAGELRRMGGFAKDTTPFSEFIWADFLRRRIDRNAVAKNFDKAMKEALSLAKGKDADYLPGWCGPTSDLEHHHHHH” here?
Answer: Its protein production is “not failed”.

Question: With “MIDVKSIILIVLDGLGDRPGEILGYRTPLQAAYHPNMNRMASLGMTGLMHPISPGIRSGSDTSHMSLLGYDPRVYYQGRGPFEALGLHMDMKPGDLAFRANFATNRDGKIIDRRAGRINAGNDQLASAISIDIGNYKFRVKSGVEHRAALVVSGPNLSDKISDSDPHSEGKPPEPIRPLDPSADSTAKIMNEYLKRIREILRDHPVNVEREKNGQIPGNELLIRSAGKVPDIPSFQEKNGITGACVVGSPWLKGLCRLLGMAVIDVPGAAGTINSNYTGKIKTAIDASKRYDFVLVNIKATDVAGHDGDYELKRRVIEDIDIAMEPLLGQSDRIVVAITGDHSTPCSVKDHSGDPVPIVFYTDGIYSDDVKLFDEVSAMKGALRITTQDVLNILMEMAGRAEKFGS” as the sequence, how does the protein production read?
Answer: Its protein production is “not failed”.

Question: For “MIEAYKDYWKRYIDFKGKSNRLEFWTPVLVHIISIFIIALIGAFSFIVGIFIVAAVLSALIGLFGLANIVPMAAVTLRRFYDAGRKRTTAIILIILSVVVNIVFDIIQVDSIAVFLNIVSIICTIILVIETLLPSKNVEDAQLKWL”, which protein production is on record?
Answer: Its protein production is “failed”.

Question: Which protein production does the source give for “MIEDKFMRVLLMFDVPTKSKKEQKLASKFRNNLIKLGYFMLQFSVYMRICKGLSSAKSSIENVKKILPPYGNVRALIITEKQFDKMELLLGGIVFNEKVNNETNLTLFDIDSHGEFKYKNSNNEEIQINKKQEKYHQQNLFEFLEHHHHHH” here?
Answer: Its protein production is “failed”.

Question: Which protein production does the source give for “MIEDTLHAIAQQDYPAESYEVLLINDGSKDNTLEIAENLAKIYPCIKIVNVPKGMGGKGKSRTLNNGLPHAKGELIVVYDADSTPEPDCVRLLAQTLLADKKLVAVNGKVRTRNWQDSILTRFIAIEFIFFQWIFQGGRWQRFELSTLMGTNYVIWRDALETLGGFDEKSLVDDTEMSFRIFIGQKRIKWVPYAIGWQQDPPSLSVFVKQRSRWTQGNFYVTRKYLPVALRTPFPIGIEILNNIMCYILFVPALFWSHITLTLGLLDIAGISVPGPFTLLWGLSFCLYVAQMWFTLSLEKVKPELYFYSVLSYVSYSQIFLFIVFKAAFDMLKNKIQGNSLQWYKTERSKEKK” here?
Answer: Its protein production is “failed”.

Question: With “MIEEQGRVVATEPGAVWVETVRRSTCSSCSANAGCGQGLMQRLGVGAGRARVRALSDLSLRVGDAVVLGIHEDLLLRASVLFYLFPLLGFFVAALLATRAGLVEPLIIVSGLAGLLAAWLLVRRHARRHADDPASQPVVLRALISGPSDSA” as the sequence, how does the protein production read?
Answer: Its protein production is “failed”.

Question: For “MIEKVYCQEVKPELDGKKVRLAGWVYTNMRVGKKIFLWIRDSTGIVQAVVAKNVVGEETFEKAKKLGRESSVIVEGIVKADERAPGGAEVHVEKLEVIQAVSEFPIPENPEQASPELLLDYRHLHIRTPKASAIMKVKETLIMAAREWLLKDGWHEVFPPILVTGAVEGGATLFKLKYFDKYAYLSQSAQLYLEAAIFGLEKVWSLTPSFRAEKSRTRRHLTEFWHLELEAAWMDLWDIMKVEEELVSYMVQRTLELRKKEIEMFRDDLTTLKNTEPPFPRISYDEAIDILQSKGVNVEWGDDLGADEERVLTEEFDRPFFVYGYPKHIKAFYMKEDPNDPRKVLASDMLAPEGYGEIIGGSQREDDYDKLLNRILEEGMDPKDYEWYLDLRRYGSVPHSGFGLGVERLVAWVLKLDHIRWAALFPRTPARLYP”, which protein production is on record?
Answer: Its protein production is “not failed”.

Question: Which protein production does the source give for “MIENTIYKEFIDKISELSDGIYPIITDLDNDLSYVPDKTADFFGFEAGEHTCFFEQLSSCVNDVDLPEYKREIRYRLNGEKPDDIFYVRMGKHTKEYMMGFYSDIFTGDDGHRYHVLVLRNENTLPDIDPYTYLYGQSKFERDINGYIMENRSVAIIEVEIGHIDEFNILYGSNFNTAIQRELALKFIYMMDGSTATYYMNNCKFVFVVKEADRALAESFYQKIADTIKSMYFFKCFKFEFDIYAACLILKDYDGDTSTVISKVEYTLDRAKELHSSDLLFFNDMVRFNGSSHIDIMKIIHQSVINSCDGFFVEFQPIVKACNGEIMGAEALVRWKKEPFGTVPPGLFIDWLEDTPAMYELGNYIMRTAISAASEFAKIKPGFFINVNASSEQLEKENFVKDTLAILKEYDFPPSQLWIEITERCRDLPISMIKKTVTAFREAGIHITMDDYGTGSSSSQMMLELPVEGIKIDMFFVKDILEEKKKQALVIGMINFANAADLKICIEGIENDNLESYLRQFDVTWFQGYHYSRSICQDELMKLLIKP” here?
Answer: Its protein production is “failed”.

Question: Which protein production does the source give for “MIESRRFVSDVMITFIASLVNIIISFPISVVIGRYLGVEDLGAYRLVFSIYGLSLLFANAGIPAAVIKQISEIKEDPKSTVKVISSSFFTSSLLGIFFLIFYLLFAETLSNIFGTPELADLIRIISLSFPFSVTGSTMLATLNGFRDMKKHATAILIQSVLMLFFTILSITFGYGVNGAVGASVISSIGYCVYLLRYLGKYIKIINFSDAVHYSKSMITFGLQTVVANAVNLINFQADTIMVGYFLTKTDVGFYSVAVLLAKLLWLIPDSIQKITYPLISEHYNNSGTEYINRAIETIMKYTMCISIVIGSGMIFYGEGIITSIYGASFIESVNPYYILIVGTMIFSIVKCVNSLFASIGRVDLFAKIPTYSAAVNILLNLVLIPIYHINGAAIATSTSLLIYVLVMIYYMKKLVNIHINVIWYSKAIFLFAMLIIINYILSLFTPFNSSGILTVSLGCLLLWIYILEPSDRVFFLSLVTKLKSLSLN” here?
Answer: The protein production was “failed”.

Question: For “MIETTKGGSGSYPIKTIVVLVQENRSFDHTLGWFKELNREIDGVTKSDPKSNTVSSSDTNSLRVVFGDQSQYVNPDPGHSIQDIYEQVFGKPWDSGKPDPNPGHPNMSGFAQNAERNKKGMSSAVMNGFKPNALPVYKELVQNFAICDRWFASVPASTQPNRLYVHSATSHGATSNDKKLLLEGFPQKTIFESLDEAGFSFGIYYQFPPSTLFYRNLRKLKYLTHFHQYGIQFKKDCKEGKLPNYVVVEQRWFDLLSTPANDDHPSHDVSEGQKLVKEVYEALRSSPQWNEILFIITYDEHGGFYDHVPTPVDGVPNPDGILGPPPYNFEFNRLGVRVPTFFISPWIEPGTVIHGPNGPYPRSQYEHSSIPATVKTIFKLKDFLSKRDSWAGTFESVITRDSPRQDCPETLSTPIKLRGTMAKENAQLSEFQEDLVIMAAGLKGDYKNEELIHKLCKETCVADASKYVTNAFEKFLEESRKARDRGCDENDIVYCVDDDDDHVVIPPQSHSEASNAAAQPKTQTSFFNKLFSCFIRHD”, which protein production is on record?
Answer: The protein production was “failed”.

Question: With “MIFAFVFDRDYYSLGLVLLALFSAQSPYGGLSLEIYLKSCRIQQNYTRLNTMKLRLPHAPYVANKIALDLVSSGYIELGSNMEKISQIAKHFLEENIKKEAALEEKVRLLLEANLEEIEFLRVDERQFFWMAKKKLAEEEGFILAKDDRYSHLSHQILDELIKEEVIDFGVSDTIIKNVIFKAIDGYVKIYESIEDVVIEKIENYKRKIIAGTEEYDMVFEKLYEEELKKRGFL” as the sequence, how does the protein production read?
Answer: Its protein production is “failed”.

Question: Which protein production does the source give for “MIFKKEPKRYTVEDTIPYLRLLKSGICQLDEKHFSKSIAFQDINYQLALDEDRDLIFNQFANFLNSFDPSISIEFSYVNQLGRNEEMKSAIQIPDKKDGFDDIRFEFREMLKSQIVKGNNGLKKSKYVTFTVEADNLEQATSKLERLEIDILSNLKSMGVRAESLNGEERLKILHDVLNPNKTFEFSYKDLKKRESTKTYIVPDEFNFTPSRYFKFGKFIGATSHFQILASELSDRMLSEFLDIDDNINISFHIRAIDQSEAIKMVKRKNTDIDKMKIEENKKAVRSGYDMDILPSDLITYGEDVKSLLKDLQTRDERMFVVSIVFMNFARTVQKLDNTIAQISSIANKHNCKLKRLDHSQEQGLVSMLPLGVNKIEIDRGLTSSSTAVFMPFTTEELFINSSNSLYYGLNALSHNLIMADRKKLKNPNGLILGTPGSGKSFSAKREMANAILVTDDDVIICDPEGEYGNLVRQFKGEVIKVSSKSKDYLNPLDINMNYGDGDAPLKDKANFIMSMLELVVGGSGLTAEEKSVIDRCLPKIYEKYFEHPTPDNMPILQDLYDMLKGQEEKVGKKLATEMEIYVSGSLNVFNHRSNVDLNKKLLCFDIKELGSQLKKIGMLVIQDQVWNKVSQNRGNKATRYYIDEFHLLLKDEQTASYSVEIWKRFRKWGGIPTGITQNVKDLLMSKEIENIFDNTDFVLMLNQASGDREILARKLKISLPQLRYVTNSNEGEGLLFFGNTIVPFLDKFPKDTILYQKMTTKPEEVRLEHHHHHH” here?
Answer: Its protein production is “not failed”.
